Test results reported in CN110872347A (TIANJIN TIMMUNE BIOTECH INC, dated 2020).

Target: HLA-A2/…抗原复合物 (human)
Test: SPR, Biacore T200, antigen on SA chip, Fc fusion as analyte 1-20 nM, Bivalent Analyte model

B1: 融合蛋白M3-D9-Fc (Fc fusion, not shown: a dimerising Fc or GST)
chain: VQLVETGGGLVQPGGSLRLSCAASGFTFSDYAIQWVRQAPGKGLGRVSYINSGGDTTYYADSVKGRFSIARDNAKNTVYLQMNSLKPEDTAVYYCYAGGYWGQGTQVTVSS
  Kd: 25 nM
  koff: 0.0171 s⁻¹
  kon: 678000 M⁻¹ s⁻¹

B2: 融合蛋白M3-E7-Fc (Fc fusion, not shown: a dimerising Fc or GST)
chain: VQLVASGGGLVPPGGSLRLSCAASGRTFNVDAMAWFRQTRGKEREFVAAISRSGGSTYYADSVKGRFSISKDNAKNTMYLQMNSLKPEDTAIYYCAAAIYWRGSYYTEGNYDYWGQRTQVTVSS
  Kd: 9 nM
  koff: 0.0309 s⁻¹
  kon: 3.43e+06 M⁻¹ s⁻¹
